Reference: patent US6426335, “Vascular endothelial growth factor (VEGF) nucleic acid ligand complexes” (Gilead Sciences, Inc.)

B1: NX213 (mixed)
mixed: TTTTACCCUGAUGGUAGACGCCGGGGUGTTTTT
modifications: PS DNA T at 1-4 and 29-33; 2'-OMe at 5,13,16,17,20,23-26,28; 2'-NH2 at 6-9,12,15,19,21,22,27

What was measured:
[1] = biological target: T1, VEGF165 (Homo sapiens, UniProt P15692-4 P15692-4:27-191); experiment: EMSA; competition EMSA; apparent affinity; VEGF isoform not stated; settings: tags: R&D Systems carrier-free, expressed in Sf21 insect cells; chain copies: homodimer (inferred)
Method: The binding affinities of the unmodified Nucleic Acid Ligand (NX213, open circle), its dialkyl glycerol modified analog (NX278, open diamond) and liposomal NX278 (NX278-L, open square), along with the sequence scrambled (sc) controls (scNX213, closed circle; scNX278, closed diamond; and scNX278-L, closed square) were determined by a competition electrophoreticmobility shift assay. NX213 is 5'-TsTsTsTs mAaCaC aCaUrG rAaUmG rGaUmA mGrAaC mGaCaC mGmGmG mGaUmG TsTsTsTsT-3' and scNX213 is (SEQ ID NO:1) 5'-TsTsTsTs mGaUaC mGmGaU mAaCrG mGrAmG aUmGrG rAaCnC mGaUaC mAaCmG TsTsTsTsT-3' (SEQ ID NO:4) ^32P 5=end-labeled NX-213 (1.5 nM) was incubated in binding buffer (phosphate buffered saline with 0.01% human serum albumin) at 37° C. for 20 min in the presence of VEGF (0.33 nM) and competitor oligonucleotide(5 pM-0.33 µM). The ^32p NX-213/VEGF complex was resolved from the free ^32p NX-213 by electrophoresison 8% polyacrylamide gel (19:1 acrylamide:bisacrylamide, Tris-borate, 89 mM, 1 mM EDTA as the running buffer). The intensity of the band corresponding to ^32P NX-213/VEGF complex at varying competitor concentrations was quantitated by phosphorimager analysis. Data normalized for the amount of complex formed in the absence of competitor were fitted by the least squares method to the competition binding equation. […]

[2] = biological target: T1, VEGF165; experiment: filter; 37C; settings: tags: R&D Systems carrier-free, expressed in Sf21 insect cells; chain copies: homodimer (inferred)
Method: (§1) Nucleic Acid Ligands radiolabeled during transcription by incorporation of α-[^32P]-labeled NTPs, or after synthesis using γ-[^32P]-ATP and T4 polynucleotide kinase, were incubated in low concentration (between 20 and 71 pM) with varying concentrations of VEGF or other growth factors at 37° C. for 15 minutes. Incubations were in TBS, PBS, or HEPES-buffered saline (HBS), pH 7.4, with or without the addition of supplemental divalent cations. Samples were passed through prewashed 0.45μ Type HA filters (Millipore) followed by a 5–10 ml wash with binding buffer. Filters were immersed in scintillant and counted to quantitate the amount of protein-bound RNA retained by each filter. The equilibrium dissociation constant (K_D) of Nucleic Acid Ligand binding to a specific protein was calculated from the data points as described in Green et al. (1996) Biochem. 35:14413–14424.

[3] = biological target: T1, VEGF165; experiment: filter; 37C; Ca2+ dependent; settings: tags: R&D Systems carrier-free, expressed in Sf21 insect cells; chain copies: homodimer (inferred)
Method: as §1

[4] = biological target: T1, VEGF165; experiment: described previously, quoted for comparison; settings: tags: R&D Systems carrier-free, expressed in Sf21 insect cells; chain copies: homodimer (inferred); label: 32P 5' end

T1 sequence (P15692 other isoform, or with tags, fused parts or gaps): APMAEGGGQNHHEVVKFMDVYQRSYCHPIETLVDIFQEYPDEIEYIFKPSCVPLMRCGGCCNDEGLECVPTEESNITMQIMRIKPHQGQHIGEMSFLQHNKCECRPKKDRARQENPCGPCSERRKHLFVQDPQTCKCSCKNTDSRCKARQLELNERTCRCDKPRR

| Binder | Kd [2] [pM] | also measured |
| --- | --- | --- |
| TTTTACCCUGAUGGUAGACGCCGGGGUGTTTTT (mixed, as NX278, embedded in DSPC:cholesterol liposome) [NX278-Liposome] |  | binding signal [1]: 3 fold lower than NX278 |
| GAACCGAUGGAAUUUUUGGACGCUCT (ssRNA, 2'-F pyrimidines; 3'-3' dT cap (N26) [26 (3'-3' dT cap); all C/U 2'-F]) [t2c] | 200 |  |
| AACCGAUGGAAUUUUUGGACGCUT (ssRNA, 2'-F pyrimidines; 3'-3' dT cap (N24) [24 (3'-3' dT cap); all C/U 2'-F]) [t2d] | 20000 |  |
| GCGGAAUCAGUGAAUGCUUAUACAUCCGCT (ssRNA, 2'-F pyrimidines; 3'-3' dT cap (N30) [30 (3'-3' dT cap); all C/U 2'-F]) [t44] |  | Kd [3]: 10 pM |
| GAAUCAGUGAAUGCUUAUACAUCT (ssRNA, 2'-F pyrimidines; 3'-3' dT cap (N24) [24 (3'-3' dT cap); all C/U 2'-F]) [t44c] | 2000 |  |
| B1 |  | Kd [4]: 140 pM |
